# Reference: patent US20080071063A1
# Assays:
# FcγRIIIA [1] = target: FcγRIIIA (UniProt P08637); assay: assay not described; affinity relative to wild type Medi2
# FcγRIIIA [2] = target: FcγRIIIA (UniProt P08637); assay: assay not described; affinity relative to wild type Medi3
# Chain of UniProt P08637 (P08637 17-208 limits assumed): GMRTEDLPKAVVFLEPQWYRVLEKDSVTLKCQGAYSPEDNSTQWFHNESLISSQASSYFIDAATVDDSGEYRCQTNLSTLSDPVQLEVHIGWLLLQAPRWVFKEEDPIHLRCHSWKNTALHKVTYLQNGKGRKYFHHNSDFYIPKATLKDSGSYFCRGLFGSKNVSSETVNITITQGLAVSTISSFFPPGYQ
fold higher binding affinity than Medi2 (FcγRIIIA [1]) [fold],fold higher binding affinity than Medi3 (FcγRIIIA [2]) [fold],Substance
78,–,"Medi2-V3 (""V3"" Fc variant of anti-Integrin αVβ3 antibody Medi2, aspartate 239, leucine 330, glutamate 332)"
–,8.8,"Medi3-V1 (Fc variant of anti-EphA2 antibody Medi3, glutamate at residue 332)"
